Our source for the protein stability index values is the supplement of paper PMC10567573.

B1: PLAGL1 (parent)
chain: DPNKMAFGCEECGKKYNTMLGYKR
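Further: lentivirally expressed fusions sorted by FACS into six bins by GFP to DsRed ratio, PSI derived from sequencing read proportions per bin multiplied by bin number.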

This data set covers variants of B1. Briefly: protein stability index of a GFP-peptide fusion (GPS, HEK-293T) (PSI 1-6); higher = more stable. As to conditions: c terminus: a fixed tail appended.
With DPNKMAFGCEECHKKYNTMLGYKR [G13H], the protein stability index stood at 2.45.
DPNKMAFGCEECKKKYNTMLGYKR [G13K]: the protein stability index worked out at 2.04.
The figure for DPNKMAFGCEECLKKYNTMLGYKR [G13L] is 3.01; for DPNKMAFGCEECNKKYNTMLGYKR [G13N] it is 2.12; for DPNKMAFGCEECFKKYNTMLGYKR [G13F] it is 1.93.
Regarding DPNKMAFGCEECMKKYNTMLGYKR [G13M], the protein stability index is 1.82.
Consider DPNKMAFGCEECSKKYNTMLGYKR [G13S], for which the protein stability index came to 2.98.
Turning to DPNKMAFGCEECPKKYNTMLGYKR [G13P], the protein stability index came out at 3.96.
In the case of DPNKMAFGCEECCKKYNTMLGYKR [G13C], the protein stability index turned out to be 1.97.
In the case of DPNKMAFGCEECRKKYNTMLGYKR [G13R] it was 2.53.
In the case of DPNKMAFGCEECYKKYNTMLGYKR [G13Y] it was 2.32.
The figure for DPNKMAFGCEECEKKYNTMLGYKR [G13E] is 2.63; for DPNKMAFGCEECVKKYNTMLGYKR [G13V] it is 1.39.
DPNKMAFGCEECQKKYNTMLGYKR [G13Q]: the protein stability index came to 2.35.
Consider DPNKMAFGCEECDKKYNTMLGYKR [G13D], for which the protein stability index is 2.81.
For DPNKMAFGCEECWKKYNTMLGYKR [G13W], the protein stability index worked out at 3.27.
In the case of DPNKMAFGCEECIKKYNTMLGYKR [G13I] it was 2.49.
The figure for DPNKMAFGCEECTKKYNTMLGYKR [G13T] is 2.33.
In the case of DPNKMAFGCEECAKKYNTMLGYKR [G13A], the protein stability index was 2.33.
The figure for DPNKMAFGCEECGSKYNTMLGYKR [K14S] is 2.39; for DPNKMAFGCEECGRKYNTMLGYKR [K14R] it is 1.99.
The figure for DPNKMAFGCEECGHKYNTMLGYKR [K14H] is 1.99; for DPNKMAFGCEECGFKYNTMLGYKR [K14F] it is 2.23.
As for DPNKMAFGCEECGLKYNTMLGYKR [K14L], the protein stability index stood at 1.54.
The figure for DPNKMAFGCEECGIKYNTMLGYKR [K14I] is 2.46; for DPNKMAFGCEECGMKYNTMLGYKR [K14M] it is 2.56.
As to DPNKMAFGCEECGWKYNTMLGYKR [K14W], the protein stability index was 3.05.
In the case of DPNKMAFGCEECGTKYNTMLGYKR [K14T] it was 3.14; in that of DPNKMAFGCEECGAKYNTMLGYKR [K14A], 2.93.
As for DPNKMAFGCEECGDKYNTMLGYKR [K14D], the protein stability index is 2.98.
The figure for DPNKMAFGCEECGYKYNTMLGYKR [K14Y] is 1.95.
In the case of DPNKMAFGCEECGGKYNTMLGYKR [K14G] it was 2.29.
On to DPNKMAFGCEECGEKYNTMLGYKR [K14E], for which the protein stability index worked out at 3.44.
With DPNKMAFGCEECGPKYNTMLGYKR [K14P], the protein stability index amounted to 2.88.
In the case of DPNKMAFGCEECGNKYNTMLGYKR [K14N] it was 3.06.
With DPNKMAFGCEECGVKYNTMLGYKR [K14V], the protein stability index was 2.37.
Turning to DPNKMAFGCEECGQKYNTMLGYKR [K14Q], the protein stability index stood at 3.04.
Consider DPNKMAFGCEECGKKYNTILGYKR [M19I], for which the protein stability index turned out to be 2.25.
In the case of DPNKMAFGCEECGKKYNTHLGYKR [M19H] it was 1.32; in that of DPNKMAFGCEECGKKYNTELGYKR [M19E], 2.32.
DPNKMAFGCEECGKKYNTALGYKR [M19A]: the protein stability index came out at 3.16.
As for DPNKMAFGCEECGKKYNTFLGYKR [M19F], the protein stability index amounted to 1.9.
Turning to DPNKMAFGCEECGKKYNTGLGYKR [M19G], the protein stability index stood at 2.64.
Take DPNKMAFGCEECGKKYNTKLGYKR [M19K]: the protein stability index came to 3.55.
In the case of DPNKMAFGCEECGKKYNTCLGYKR [M19C], the protein stability index turned out to be 2.57.
In the case of DPNKMAFGCEECGKKYATMLGYKR [N17A] it was 2.82; in that of DPNKMAFGCEECGKKYLTMLGYKR [N17L], 1.91; in that of DPNKMAFGCEECGKKYHTMLGYKR [N17H], 2.91.
In the case of DPNKMAFGCEECGKKYRTMLGYKR [N17R] it was 2.02.
Regarding DPNKMAFGCEECGKKYITMLGYKR [N17I], the protein stability index was found to be 2.44.
With DPNKMAFGCEECGKKYKTMLGYKR [N17K], the protein stability index is 3.06.
Turning to DPNKMAFGCEECGKKYETMLGYKR [N17E], the protein stability index worked out at 2.31.
In the case of DPNKMAFGCEECGKKYQTMLGYKR [N17Q], the protein stability index is 2.73.
On to DPNKMAFGCEECGKKYTTMLGYKR [N17T], for which the protein stability index was determined as 1.99.
Consider DPNKMAFGCEECGKKYVTMLGYKR [N17V], for which the protein stability index came out at 1.78.
The figure for DPNKMAFGCEECGKKYMTMLGYKR [N17M] is 1.75; for DPNKMAFGCEECGKKYDTMLGYKR [N17D] it is 2.33.
Take DPNKMAFGCEECGKKYCTMLGYKR [N17C]: the protein stability index is 2.2.
In the case of DPNKMAFGCEECGKKYSTMLGYKR [N17S], the protein stability index worked out at 1.66.
On to DPNKMAFGCEECGKKYWTMLGYKR [N17W], for which the protein stability index is 1.76.
Take DPNKMAFGCEECGKKYPTMLGYKR [N17P]: the protein stability index was found to be 2.35.
In the case of DPNKMAFGCEECGKKYFTMLGYKR [N17F] it was 3.25.
In the case of DPNKMAFGCEECGKKYGTMLGYKR [N17G] it was 1.52; in that of DPNKMAFGCGECGKKYNTMLGYKR [E10G], 2.3.
The figure for DPNKMAFGCMECGKKYNTMLGYKR [E10M] is 1.96; for DPNKMAFGCCECGKKYNTMLGYKR [E10C] it is 1.74; for DPNKMAFGCVECGKKYNTMLGYKR [E10V] it is 2.37.
As to DPNKMAFGCNECGKKYNTMLGYKR [E10N], the protein stability index was 2.29.
Turning to DPNKMAFGCTECGKKYNTMLGYKR [E10T], the protein stability index is 2.21.
The figure for DPNKMAFGCLECGKKYNTMLGYKR [E10L] is 1.92; for DPNKMAFGCFECGKKYNTMLGYKR [E10F] it is 2.4.
In the case of DPNKMAFGCYECGKKYNTMLGYKR [E10Y], the protein stability index is 1.92.
In the case of DPNKMAFGCWECGKKYNTMLGYKR [E10W] it was 3.11.
Regarding DPNKMAFGCPECGKKYNTMLGYKR [E10P], the protein stability index amounted to 2.3.
In the case of DPNKMAFGCHECGKKYNTMLGYKR [E10H], the protein stability index was 2.11.
The figure for DPNKMAFGCRECGKKYNTMLGYKR [E10R] is 1.64; for DPNKMAFGCKECGKKYNTMLGYKR [E10K] it is 2.6; for DPNKMAFGCSECGKKYNTMLGYKR [E10S] it is 3.23.
The figure for DPNKMAFGCAECGKKYNTMLGYKR [E10A] is 1.74; for DPNKMAFGCIECGKKYNTMLGYKR [E10I] it is 2.51; for DPNKMAFGCQECGKKYNTMLGYKR [E10Q] it is 2.54.
Take DPNKMAFGPEECGKKYNTMLGYKR [C9P]: the protein stability index is 3.43.
The figure for DPNKMAFGQEECGKKYNTMLGYKR [C9Q] is 4.16; for DPNKMAFGIEECGKKYNTMLGYKR [C9I] it is 3.32.
In the case of DPNKMAFGWEECGKKYNTMLGYKR [C9W] it was 3.01; in that of DPNKMAFGMEECGKKYNTMLGYKR [C9M], 3.16.
The figure for DPNKMAFGLEECGKKYNTMLGYKR [C9L] is 3.9; for DPNKMAFGSEECGKKYNTMLGYKR [C9S] it is 4.08.
Regarding DPNKMAFGKEECGKKYNTMLGYKR [C9K], the protein stability index stood at 3.6.
In the case of DPNKMAFGYEECGKKYNTMLGYKR [C9Y] it was 3.61; in that of DPNKMAFGNEECGKKYNTMLGYKR [C9N], 4.01.
In the case of DPNKMAFGREECGKKYNTMLGYKR [C9R] it was 4.08; in that of DPNKMAFGVEECGKKYNTMLGYKR [C9V], 4.21; in that of DPNKMAFGTEECGKKYNTMLGYKR [C9T], 4.07.
